Our source for the percent of αβTCR+ T cells in the dashed MUC1+ box (antibody-bound T cells) values is US20250382384A1.

Test [1] has as its target MUC1 on normal activated human T cells (human) (UniProt P15941). In words: FACS on PHA-L-activated human PBMC, live αβTCR+ cells, donor 191180405C.
For test [2] the target is unchanged. Description: FACS on PHA-L-activated human PBMC, live αβTCR+ cells, donor 3011029.
Test [3] has the same target. Description: FACS on PHA-L-activated human PBMC, live αβTCR+ cells, donor 3009223.
Test [4] shares this target. In words: FACS on PHA-L-activated human PBMC, live αβTCR+ cells, donor 190980805C.
Test [5] shares this target. Description: FACS on PHA-L-activated human PBMC, live αβTCR+ cells; gating scheme, donor not given.

Sequence of MUC1 on normal activated human T cells (human) (P15941 24-1255): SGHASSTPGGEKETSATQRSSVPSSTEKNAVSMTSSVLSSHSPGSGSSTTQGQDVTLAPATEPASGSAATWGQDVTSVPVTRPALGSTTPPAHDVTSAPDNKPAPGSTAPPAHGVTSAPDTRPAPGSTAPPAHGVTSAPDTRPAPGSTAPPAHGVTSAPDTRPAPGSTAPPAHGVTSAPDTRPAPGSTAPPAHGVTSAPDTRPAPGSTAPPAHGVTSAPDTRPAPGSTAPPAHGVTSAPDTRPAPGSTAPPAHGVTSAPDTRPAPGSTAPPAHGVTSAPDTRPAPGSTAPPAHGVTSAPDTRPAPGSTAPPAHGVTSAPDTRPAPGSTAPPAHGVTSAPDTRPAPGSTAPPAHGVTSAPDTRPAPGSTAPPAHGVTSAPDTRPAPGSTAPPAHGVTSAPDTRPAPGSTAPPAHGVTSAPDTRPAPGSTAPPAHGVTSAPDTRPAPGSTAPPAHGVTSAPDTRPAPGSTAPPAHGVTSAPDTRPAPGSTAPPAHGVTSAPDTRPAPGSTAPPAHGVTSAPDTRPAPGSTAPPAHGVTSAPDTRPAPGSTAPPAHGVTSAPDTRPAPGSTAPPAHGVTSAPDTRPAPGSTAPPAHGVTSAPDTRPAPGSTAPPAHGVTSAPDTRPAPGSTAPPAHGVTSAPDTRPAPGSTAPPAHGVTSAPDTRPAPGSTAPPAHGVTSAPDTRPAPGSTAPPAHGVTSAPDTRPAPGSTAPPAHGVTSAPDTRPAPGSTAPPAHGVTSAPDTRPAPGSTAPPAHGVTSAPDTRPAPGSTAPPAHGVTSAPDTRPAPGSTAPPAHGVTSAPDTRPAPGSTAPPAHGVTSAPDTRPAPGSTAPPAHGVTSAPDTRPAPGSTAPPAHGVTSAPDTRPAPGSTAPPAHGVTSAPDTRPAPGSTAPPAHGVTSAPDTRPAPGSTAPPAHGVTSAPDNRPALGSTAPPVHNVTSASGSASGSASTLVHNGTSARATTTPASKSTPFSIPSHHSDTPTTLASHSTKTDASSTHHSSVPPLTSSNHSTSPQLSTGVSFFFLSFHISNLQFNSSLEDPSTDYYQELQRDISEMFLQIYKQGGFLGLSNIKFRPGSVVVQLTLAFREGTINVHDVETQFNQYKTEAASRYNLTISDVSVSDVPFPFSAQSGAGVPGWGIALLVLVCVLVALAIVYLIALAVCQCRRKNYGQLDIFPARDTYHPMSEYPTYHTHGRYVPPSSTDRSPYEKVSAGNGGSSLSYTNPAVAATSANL

HMFG1 (antibody): the percent of αβTCR+ T cells in the dashed MUC1+ box (antibody-bound T cells) was found to be 28.1% in test [1]; 23.2% in test [2]; 10% in test [3]; 28.2% in test [4]; 28.1% in test [5].

On to Isotype (antibody), for which the percent of αβTCR+ T cells in the dashed MUC1+ box (antibody-bound T cells) in test [1] worked out at 0.29%; in test [2], 0.36%; in test [3], 0.05%; in test [4] it was 0.15%; in test [5], 0.29%.
